Experiments:
Human IL-18 (human) [1] = molecular target: Human IL-18 (human) (UniProt Q14116); conditions: cited from earlier work
Human IL-18 (human) [2] = molecular target: Human IL-18 (human) (UniProt Q14116)

Human IL-18 (human), sequence (Q14116 37-193): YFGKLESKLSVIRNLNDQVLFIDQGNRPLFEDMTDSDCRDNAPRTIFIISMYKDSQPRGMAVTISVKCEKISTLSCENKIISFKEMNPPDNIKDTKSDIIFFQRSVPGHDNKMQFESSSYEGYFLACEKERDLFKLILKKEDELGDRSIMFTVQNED
Clinical-grade recombinant human IL-18BP, sequence (O95998 31-194): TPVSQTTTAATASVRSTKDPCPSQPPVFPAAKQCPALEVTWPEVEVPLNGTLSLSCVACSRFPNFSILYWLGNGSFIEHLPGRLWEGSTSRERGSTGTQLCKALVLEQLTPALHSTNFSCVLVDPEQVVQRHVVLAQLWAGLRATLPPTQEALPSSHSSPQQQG
IL-18BP, sequence (O95998 31-194): as above

Substance | Kd (Human IL-18 (human) [1]) [nM] | reduction of IL-12/IL-18-induced IFNγ production in human PBMC cultures by IL-18BP (24 h) (Human IL-18 (human) [2]) [%] | reduction of IL-12/IL-18-induced IL-6 release in human PBMC cultures by IL-18BP (24 h) (Human IL-18 (human) [2]) [%]
IL-18BP (from UniProt O95998) | 0.5 |  | 
Clinical-grade recombinant human IL-18BP (from UniProt O95998 31-194) (natural protein) |  | 95 | 85

Reference: publication PMC8018910
